According to US6221617A, “Bioassay for growth hormone releasing hormone” (priority 1997, dated 2001):
Read-outs that look alike come from different tables or passages of the source.

Legend:
[1] = molecular target: T1, porcine GHRH receptor (Sus scrofa, UniProt P34999)
T1 sequence (P34999 23-423): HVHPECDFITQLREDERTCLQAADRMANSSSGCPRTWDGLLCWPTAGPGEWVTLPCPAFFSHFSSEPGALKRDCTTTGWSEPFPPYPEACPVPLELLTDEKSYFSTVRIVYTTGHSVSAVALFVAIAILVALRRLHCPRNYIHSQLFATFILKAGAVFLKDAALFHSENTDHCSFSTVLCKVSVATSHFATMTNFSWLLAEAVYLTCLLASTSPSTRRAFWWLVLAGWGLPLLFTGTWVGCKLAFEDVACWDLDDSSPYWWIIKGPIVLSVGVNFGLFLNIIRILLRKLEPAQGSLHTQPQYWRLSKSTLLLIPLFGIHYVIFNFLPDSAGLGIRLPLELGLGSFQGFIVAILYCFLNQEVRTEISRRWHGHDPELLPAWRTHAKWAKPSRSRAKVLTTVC
Protocol: Assays for secreted alkaline phosphatase (SEAP) were performed using the chemiluminescent substrate in the Great Escape Detection Kit (Clontech). Culture medium was centrifuged at 14000 rpm in a microfuge centrifuge to remove cell debris. One hundred microliters of culture medium was then added to 300 ul of dilution buffer and heated at 65 C. for 30 minutes. Samples were cooled to room temperature and 100 ul of diluted sample was added to 100 ul of assay buffer. Samples were allowed to set for 5 minutes. One hundred microliters of the CSPD substrate solution was then added to each sample, incubated in the dark for 10 minutes and read on a Wallac LKB 1251 tube luminometer.
A stable transfection was performed in pGHRHr/293 cells using the cAMP-responsive SEAP reporter construct, pha180SEAPpur and stable transfectants were selected on the basis of puromycin resistance. pha180SEAPpur was transfected into pGHRHr/293 cells at 1, 2, 4, 8 and 16 ug/ml Opti-MEM using 8 ul of Lipofectin/ml in six well culture plates. After six hours, 1 ml of 20% fetal calf serum in DME (high glucose) was added to the cells. Twenty-four hours post-transfection the cells were subcultured 1:18 and were incubated in 250 ug/ml G418. Forty-eight hours post-transfection the media was replaced with selectable medium containing 250 ug/ml G418 and 1 ug/ml puromycin. Cells were incubated for three weeks and picked using Trypsin-EDTA treated Whatman 3MM paper and placed in 24 well plates. Upon growing stable isolates to confluency in T75 cm^2 culture flasks, pGHRHr/SEAP/293 cells were removed from flasks, plated in 24 well plates at 1×10^5 cells/well and stimulated with various doses of recombinant human GHRH (1-44)NH2. Media was collected and assayed for secreted placental alkaline phosphatase. Time course studies were performed over a 20 hour period to determine the optimal time to remove media samples from the tissue cultures during stimulation with GHRH. Comparisons of synthetic and recombinant human GHRH (1-44)NH2 (10^-13 to 10^-7 M) were also made. Data was analyzed using FOURFIT and ALLFIT, four parameter logistic curve fitting programs.
Sigmoidal dose response curves were fit by four parameter logistic curve fitting using FOURFIT (Grotjan and Steinberger, 1977), with multiple curves being compared using ALLFIT (DeLean et al.,1978). […] For cAMP and SEAP bioassays, a weighted regression analysis was performed with weights assigned as the reciprocal of predicted variance.

[2] = system: rat anterior pituitary cell cultures; assay: Rat primary anterior pituitary cell bioassay (GH release, radioimmunoassay); format: cell-based
Protocol: Rat anterior pituitary cell cultures were prepared for measuring the biological activity of GHRH, GHRH-induced release of GH was quantified using radioimmunoassay. Anterior pituitaries from fifteen female Sprague-Dawley rats were placed in a solution of Gey's media supplemented with 1% BSA, 0.25% glucose, and 0.2 mM MEM non essential amino acids at pH 7.4. Cell dispersion was performed in a solution of 400 U/ml trypsin in supplemented Gey's media for 30 minutes, 1750 KU/ml DNase-I in supplemented Gey's media for 5 minutes, and cells were triturated 15-30 times in 0.6 mg/ml lima bean trypsin inhibitor in supplemented Gey's media. Cells were filtered thru 160 u and 100 u mesh and centrifuged for 3 minutes at 1100 RPM and 12 minutes at 1600 rpm. Cell pellet was suspended at 3×10^5 cells/ml in DMEM supplemented with 10% fresh rat serum, 3% horse serum, 2.5% fetal calf serum, 2% Antibiotic-Antimycotic, 0.3% Fungizone, 0.45% glucose, 25 mM Hepes, 4 mM glutamine, 1 mM sodium pyruvate, 1 nM 3,3',5-triiodo-L -thyronine (T3), 100 nM dexamethazone and 10 uM MEM non essential amino acids. Cells were plated at 1 ml/well in 24 well plates and incubated at 8% CO2 at 37 C. for 68-72 hours. To stimulate cells with hormones, cells were washed three times in Gey's media supplemented with 1% BSA, 0.45% glucose and 25 mM Hepes. GHRH (1-44)NH2 was added to cells in 1 ml of supplemented Gey's media and cells were incubated for 3 hours before collecting media. Rat growth hormone levels were quantitated using a radioimmunoassay kit (Amersham).
(§1) Predicted variances in SEAP responses=0.32×(Y)^154.

[3] = molecular target: T1, porcine GHRH receptor; assay: cAMP accumulation assay of the pGHRHr/293 cell line; format: cell-based; set-up: host or cells: human fetal kidney 293 cells (pGHRHr/293), stably expressing, G418-selected; settings: pGHRHr/293 cells, 45 minutes, 10^-12 to 10^-6 M
Protocol: The media was then replaced with DME containing 0.1% BSA and 0.1 mM 3-isobutyl-1-methyl-xanthine. Doses of recombinant human GHRH (1-44)NH2 doses, 1×10^-6 M to 1×10^-12 M, were added and the cells were incubated for 45 minutes at 37° C. They were lysed in 60% ethanol and cAMP levels were quantitated by an immunoassay kit (Amersham). After performing the cAMP EIA, data was analyzed using Fourfit, a four parameter logistic curve fitting program.
as §1

[4] = molecular target: T1, porcine GHRH receptor; assay: SEAP reporter expression in pGHRHr/293 cells transiently transfected with pha180SEAP; format: cell-based; set-up: host or cells: human fetal kidney 293 cells (pGHRHr/293), stably expressing, G418-selected; settings: transiently transfected pGHRHr/293 cells, 6 hours
Protocol: Samples were allowed to set for 5 minutes.
The efficacy of the cAMP-responsive promoter was evaluated by transient transfection assays using 293 and pGHRHr/293 cells. Transiently transfected 293 cells were stimulated with 1 mM 8-bromo cAMP for 20 hours, while pGHRHr/293 cells were stimulated with various concentrations of recombinant human GHRH for 6 hours.
The ability of GHRH to stimulate the expression of the SEAP reporter cDNA was evaluated using pGHRHr/293 cells transiently transfected with pha180SEAP. Cells were incubated with various doses of GHRH(1-44)NH2 (10^-10 to 10^-6 M) for 6 hours and media was then assayed for SEAP activity.

[5] = pGHRHr/SEAP/293 cells, 16 hour incubation
[6] = primary rat pituitary cell cultures, 3 hours

Substance | increase in SEAP expression ([1]; human, pghrhr/seap/293 cells, 16 h) | minimal detectable dose [1, 5] | EC50 ([1]; read-out: calculated ED50 of SEAP expression, pGHRHr/SEAP/293 cells, 16 hour incubation) | EC50 ([2]; primary rat pituitary cell cultures, 3 hours, read-out: ED50 of GH secretion) | calculated ED50 of increase in intracellular cAMP concentration [3] | calculated ED50 of SEAP dose-response curves ([1]; after 12, 14, 16 and 18 hours of exposure, not significantly different) | SEAP activity increase over the 12-16 hour time points ([1]; at 18 hours) | SEAP activity increase over the 12-16 hour time points ([1]; at 20 hours) | increase in SEAP activity ([1]; pGHRHr/SEAP/293 #815-4, between 12 and 18 hours of exposure) | calculated ED50 of SEAP expression [1, 5] | increase in SEAP expression ([1]; pGHRHr/SEAP/293 cells, 16 hour incubation, 10^-13 to 10^-7 M) | potency relative to synthetic GHRH (times as potent) ([1]; pGHRHr/SEAP/293 reporter bioassay, p<0.0001) | ED50 of GH secretion [2, 6] | increase in GH secretion into the medium [2, 6] | potency relative to synthetic GHRH (times as potent) ([2]; rat pituitary bioassay) | increase in the expression of the reporter protein (SEAP) ([4]; 10^-10 to 10^-6 M) | ED50 of SEAP reporter expression [4]
synthetic human GHRH (1-44)NH2: Synthetic human GHRH(1-44)NH2 purchased from Peninsula; reference preparation [reference compound] | 9.1 fold | 1.47 pM | 0.0778 nM | 0.364 nM | – | – | – | – | – | – | – | – | – | – | – | – | –
recombinant human GHRH (1-44)NH2: Recombinant human GHRH(1-44)NH2 obtained from BioNebraska, Inc. as a powder | – | – | – | – | 8.4±3.6×10^-9 M | 261 pM | 1.3 fold | 1.7 fold | 4.8 fold | 4.26±0.28×10^-11 M | 9.1 fold | 1.83±0.13 times | 2.16±1.04×10^-10 M | 3.1 fold | 1.69±0.67 times | 2.5 fold | 510 pM
